The text below walks through data of doi:10.1101/2020.01.24.918722, “Calsyntenin-3 directly interacts with neurexins to orchestrate excitatory synapse development in the hippocampus” (bioRxiv, 2020).

B2: Ig-mNrxn1β^+SS4 (Fc fusion)
chain: not shown
notes: signal peptide in the construct; extracellular region of mouse neurexin-1β with the SS4 insert, aa 1-389; also called Ig-Nrxn1β^+SS4; pCMV-IgC-mNrxn1β^+SS4; source: HEK293T, purified (protein A-Sepharose)

The assay “Ig-mNrxn1β^+SS4” has as its target B2. Put plainly: pull-down; direct protein-interaction assay: 10 μg purified Ig-Nrxn1 with 4 μg purified His-HA-Clstn3, 2 h at 4°C, 25 mM Tris pH 7.5, 30 mM MgCl2, 40 mM NaCl, 0.5% Triton X-100; precipitated with Talon resin, blot with anti-human IgG. Conditions: both partners purified.
For assay [1], the target named is T1, His-HA-Clstn3 Ecto (extracellular domain of mouse Clstn3) (mouse, UniProt Q99JH7 21-846).
T1 construct: extracellular domain of mouse calsyntenin-3, aa 21-846; also called His-HA-Clstn3 Full (methods); source: purified recombinant protein (pCAGGS vector); not shown: His6, N-terminal, kept; HA, N-terminal, kept
T1 sequence (looked up): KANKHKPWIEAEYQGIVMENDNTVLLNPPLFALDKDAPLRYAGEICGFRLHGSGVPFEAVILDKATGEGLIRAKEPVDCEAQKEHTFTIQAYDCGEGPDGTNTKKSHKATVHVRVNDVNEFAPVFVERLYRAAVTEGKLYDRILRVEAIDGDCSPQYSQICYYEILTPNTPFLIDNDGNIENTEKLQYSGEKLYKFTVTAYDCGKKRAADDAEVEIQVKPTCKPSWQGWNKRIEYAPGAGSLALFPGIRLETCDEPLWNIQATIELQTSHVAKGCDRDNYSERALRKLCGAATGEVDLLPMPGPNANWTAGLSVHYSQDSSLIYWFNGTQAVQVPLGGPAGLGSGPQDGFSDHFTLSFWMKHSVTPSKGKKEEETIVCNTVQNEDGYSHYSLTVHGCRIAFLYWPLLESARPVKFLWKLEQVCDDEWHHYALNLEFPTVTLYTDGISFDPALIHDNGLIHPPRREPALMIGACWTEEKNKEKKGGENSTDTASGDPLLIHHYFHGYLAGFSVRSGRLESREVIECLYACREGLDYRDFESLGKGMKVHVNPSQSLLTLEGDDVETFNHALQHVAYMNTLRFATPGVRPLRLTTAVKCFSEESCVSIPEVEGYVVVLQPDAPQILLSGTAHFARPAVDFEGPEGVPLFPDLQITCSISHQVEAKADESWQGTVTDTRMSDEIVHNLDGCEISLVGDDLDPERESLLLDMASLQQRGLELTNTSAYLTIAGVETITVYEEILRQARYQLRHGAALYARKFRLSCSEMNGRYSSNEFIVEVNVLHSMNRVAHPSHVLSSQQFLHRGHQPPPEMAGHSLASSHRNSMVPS
Described as above. Conditions: both partners purified.

Sequence of Ig-mNrxn1β^+SS4 (P0DI97 47-389): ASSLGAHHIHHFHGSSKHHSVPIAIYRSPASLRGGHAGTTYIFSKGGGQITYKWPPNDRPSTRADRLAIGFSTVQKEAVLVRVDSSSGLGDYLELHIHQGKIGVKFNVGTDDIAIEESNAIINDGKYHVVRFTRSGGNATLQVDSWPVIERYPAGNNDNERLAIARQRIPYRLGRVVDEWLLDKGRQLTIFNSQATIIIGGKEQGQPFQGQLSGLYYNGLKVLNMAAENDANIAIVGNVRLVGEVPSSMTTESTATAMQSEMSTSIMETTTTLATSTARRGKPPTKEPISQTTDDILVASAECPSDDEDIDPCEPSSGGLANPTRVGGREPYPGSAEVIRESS

B1: His-HA-Clstn3 Cad (extracellular, cadherin domains) (domain or fragment, mouse, UniProt Q99JH7 21-269, looked up)
chain: KANKHKPWIEAEYQGIVMENDNTVLLNPPLFALDKDAPLRYAGEICGFRLHGSGVPFEAVILDKATGEGLIRAKEPVDCEAQKEHTFTIQAYDCGEGPDGTNTKKSHKATVHVRVNDVNEFAPVFVERLYRAAVTEGKLYDRILRVEAIDGDCSPQYSQICYYEILTPNTPFLIDNDGNIENTEKLQYSGEKLYKFTVTAYDCGKKRAADDAEVEIQVKPTCKPSWQGWNKRIEYAPGAGSLALFPGIR
notes: mouse calsyntenin-3, aa 21-269 (cadherin domains); source: purified recombinant protein (pCAGGS vector); not shown: His6, N-terminal, kept; HA, N-terminal, kept
With B1, in the assay with Ig-mNrxn1β^+SS4, the binding result was “binds”. In the case of B2, the binding result in assay [1] is listed as “binds”.
